Publication PMC11497264, “SARS‐CoV‐2 Spike Protein‐Derived Cyclic Peptides as Modulators of Spike Interaction with GRP78” (Chembiochem, 2024)
Bridge positions count the residues as written; N and C are the ends.

B1: human glucose-regulated protein GRP78 (natural protein)
chain: not shown
notes: also called heat shock protein A5; HSPA5; source: Escherichia coli, recombinant; bought: Abcam
B2: Pep42, 13-mer cyclopeptide (peptide)
peptide: H-CTVALPGGYVRVC-NH2
modifications: disulfide 1-13
SMILES: CC(C)C[C@@H]1NC(=O)[C@H](C)NC(=O)[C@H](C(C)C)NC(=O)[C@H]([C@@H](C)O)NC(=O)[C@@H](N)CSSC[C@@H](C(N)=O)NC(=O)[C@H](C(C)C)NC(=O)[C@H](CCCNC(=N)N)NC(=O)[C@H](C(C)C)NC(=O)[C@H](Cc2ccc(O)cc2)NC(=O)CNC(=O)CNC(=O)[C@@H]2CCCN2C1=O
notes: source: synthetic peptide (Fmoc SPPS, disulphide cyclisation with DMSO, HPLC purified)

Columns and labels:
[1] = biological target: T1, S1 subunit (aa 14-685) of the spike protein of SARS-CoV-2 (SARS-CoV-2, UniProt P0DTC2 14-685); assay: SPR; settings: both partners purified
T1 construct: also called soluble S1; wild-type S1 protein

[2] = biological target: B1; assay: SPR; settings: both partners purified

Binder	KD in the presence of 12.5 uM LCP O [1] [µM]	KD in the presence of 12.5 uM LCP W [1] [µM]	IC50 [2] [µM]	Kd [2] [µM]
B1	0.751	0.137	–	–
B2	–	–	5.9	3.4
